Consider five molecules from patent publication US20240059799A1 (Pfizer, published 2024).

Substitutions are numbered along the chain they refer to. Read-outs that look alike come from different tables or passages of the source.

Assay [1] concerns the target T1, recombinant human TL1A (human, UniProt O95150 71-251).
T1 chain: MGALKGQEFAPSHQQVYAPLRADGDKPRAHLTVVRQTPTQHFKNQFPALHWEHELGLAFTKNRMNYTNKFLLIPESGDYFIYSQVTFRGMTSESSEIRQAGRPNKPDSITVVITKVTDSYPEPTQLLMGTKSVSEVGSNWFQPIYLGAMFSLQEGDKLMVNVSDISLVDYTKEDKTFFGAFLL
Kind of assay: cell-based or functional assay.

Assay [2] addresses T2, human IL-23 (human, UniProt P29460 23-328; Q9NPF7 20-189).
T2 construct: also called recombinant human IL-23 (p40/p19)
T2 sequence 1: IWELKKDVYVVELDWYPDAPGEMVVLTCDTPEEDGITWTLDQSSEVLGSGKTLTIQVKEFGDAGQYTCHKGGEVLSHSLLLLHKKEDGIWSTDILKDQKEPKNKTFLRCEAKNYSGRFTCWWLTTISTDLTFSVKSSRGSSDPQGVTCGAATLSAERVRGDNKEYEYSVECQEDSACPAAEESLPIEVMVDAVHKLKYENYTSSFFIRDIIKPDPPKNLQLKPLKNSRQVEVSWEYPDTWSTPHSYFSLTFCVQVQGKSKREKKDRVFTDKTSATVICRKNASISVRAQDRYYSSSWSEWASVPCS
T2 sequence 2: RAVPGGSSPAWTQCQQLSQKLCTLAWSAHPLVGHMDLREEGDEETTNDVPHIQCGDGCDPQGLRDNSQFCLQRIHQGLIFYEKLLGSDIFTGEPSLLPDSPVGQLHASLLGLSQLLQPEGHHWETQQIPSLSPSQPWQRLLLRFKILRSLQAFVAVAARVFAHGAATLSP
The assay is described as follows: SPR, 37 C; antibody captured by anti-human Fc, human IL-23 injected. On the procedure:
(§1) SPR was utilized to determine if the affinity constants of each arm of the bispecific variants binding human IL-23, containing the p40 subunit, and human TL1A were the same for each bispecific approach. For the analysis of the p40 binding arm, kinetic assays were conducted at 37° C. using a collection rate of 10 Hz on a Biacore™ 8 K+ instrument (GE Healthcare). An anti-human IgG antibody (anti-human Fc, GE Healthcare, 22-0648-88) was amine coupled to all four flow cells of a carboxymethylated dextran coated sensor chip (GE Healthcare,) using the manufacturer's recommended protocol. […] For the analysis of the TL1A binding arm, kinetic assays were conducted at 37° C. using a collection rate of 10 Hz on a Biacore™ T200 instrument (GE Healthcare).
(§2) As described above in EXAMPLE 12, SPR was utilized to determine if the affinity constants of each arm of the bispecific variants binding human IL-23, containing the p40 subunit, and human TL1A were the same for each bispecific variant.
On the technique in general: In SPR one partner is held on a chip, and binding of the other changes the refractive index at the surface.

Assay [3] deals with T1, recombinant human TL1A. Kind of assay: SPR, 37 C; biotinylated human TL1A captured on Biotin CAPture chip, antibody injected. On the procedure: as §1, §2
The target of assay [4] is T3, recombinant human TL1A (human, UniProt O95150 71-251).
T3 chain: T1 chain
Kind of assay: cell-based or functional assay.

Assay [5] concerns the target T3, recombinant human TL1A. The assay is described as follows: competition ELISA, coated TL1A, competitor bio-TL1A-0002.
The target in assay [6] is T4, full-length human TL1A on CHO-K1 cells (human, UniProt O95150 1-251).
T4 construct: whole, on cells; also called cells over-expressing human TL1A
T4 sequence (looked up): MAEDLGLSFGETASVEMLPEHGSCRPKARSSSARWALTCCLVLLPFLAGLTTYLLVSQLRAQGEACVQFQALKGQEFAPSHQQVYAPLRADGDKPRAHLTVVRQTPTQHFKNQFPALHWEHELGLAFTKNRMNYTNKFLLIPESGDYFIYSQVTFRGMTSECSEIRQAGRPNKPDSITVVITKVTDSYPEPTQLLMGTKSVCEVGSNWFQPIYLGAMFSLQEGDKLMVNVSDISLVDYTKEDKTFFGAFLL
Kind of assay: flow cytometry on CHO-K1 cells stably expressing full-length human TL1A, PE anti-human IgG, median fluorescent intensity. On the procedure:
A cell binding assay was performed to examine if the panel of [xTL1A] bivalent antibody variants could bind to human TL1A over-expressed on the cell surface. […] [xTL1A] bivalent antibody variants were incubated with cells on ice for 30-60 minutes at a concentration of either 1 μg/mL or 20 μg/mL. Cells were pelleted by centrifugation at 1500 RPM for 5 minutes at 4° C. and supernatant was discarded by aspiration. The cells were washed three times with DPBS with 4% FBS buffer as described. Cells were resuspended in 100 μL of PE-anti-human IgG (Life technologies Catalog number H10104) diluted 1:500 in DPBS with 4% FBS buffer and incubated on ice for 15 minutes. Cells were washed three times as described and resuspended in 200 μL of DPBS with 4% FBS buffer, then run on a flow cytometry instrument.
(In general: Flow cytometry measures light scatter and fluorescence of single cells or particles in a stream.)

Assay [7] concerns the target T3, recombinant human TL1A. The assay is described as follows: competition ELISA on plate-coated recombinant human TL1A, competitor biotinylated TL1A-0260 (bio-TL1A-0260), streptavidin-HRP, OD450. On the procedure:
(§3) For this competition ELISA assay procedure, 96-well high binding plates (Corning, product number 3590) were coated with 1 μg/mL recombinant TL1A in 100 μL/well in Phospate Buffered Saline (PBS) overnight at 4° C. Plates were then blocked in PBS+0.02% casein solution and washed with PBS+0.05% Tween-20 following standard ELISA protocol. […] Plates were washed with PBS+0.05% Tween-20 following standard ELISA protocol, and Streptavidin-HRP (Southern Biotech, product number 7100-05) diluted to 1:10,000 in assay buffer was added to plates and incubated for 25-30 minutes at room temperature. Next, the plates were washed with PBS+0.05% Tween-20 following standard ELISA protocol, and then TMB substrate (BioFX Laboratories Catalog number TMBW-0100-01) was added to plates. Reactions were stopped after approximately 5 minutes by adding 0.18 M ortho-phosphoric acid to each well and absorbance was read at 450 nm.
Background: ELISA stands for enzyme-linked immunosorbent assay.

The target in assay [8] is T3, recombinant human TL1A. Described as above. As to the method: as §3
Assay [9] addresses T3, recombinant human TL1A. The assay is described as above. As to the method: as §3
Assay [10] has as its target T3, recombinant human TL1A. The description is as above. As to the method: as §3

B1: p40TL1A-0040 KiH mFd bispecific antibody (bispecific antibody)
heavy: EVQLVQSGAEVKKPGESLKISCKGSGYSFTTYWLGWVRQMPGKGLDWIGIMSPVDSDIRYSPSFQGQVTMSVDKSITTAYLQWNSLKASDTAMYYCARRRPGQGYFDFWGQGTLVTVSSASTKGPSVFPLAPSSKSTSGGTAALGCLVKDYFPEPVTVSWNSGALTSGVHTFPAVLQSSGLYSLSSVVTVPSSSLGTQTYICNVNHKPSNTKVDKKVEPKSCDKTHTCPPCPAPEAAGAPSVFLFPPKPKDTLMISRTPEVTCVVVDVSHEDPEVKFNWYVDGVEVHNAKTKPREEQYNSTYRVVSVLTVLHQDWLNGKEYKCKVSNKALPAPIEKTISKAKGQPREPQVYTLPPCREEMTKNQVSLSCAVKGFYPSDIAVEWESNGQPENNYKTTPPVLDSDGSFFLVSKLTVDKSRWQQGNVFSCSVLHEALHSHYTQKSLSLSPGK
light: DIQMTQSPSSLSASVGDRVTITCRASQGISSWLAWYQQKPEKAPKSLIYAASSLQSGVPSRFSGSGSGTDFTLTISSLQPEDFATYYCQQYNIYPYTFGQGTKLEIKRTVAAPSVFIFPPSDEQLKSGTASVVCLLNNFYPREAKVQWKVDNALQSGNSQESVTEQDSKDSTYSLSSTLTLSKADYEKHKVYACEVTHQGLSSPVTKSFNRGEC
LC-Fc: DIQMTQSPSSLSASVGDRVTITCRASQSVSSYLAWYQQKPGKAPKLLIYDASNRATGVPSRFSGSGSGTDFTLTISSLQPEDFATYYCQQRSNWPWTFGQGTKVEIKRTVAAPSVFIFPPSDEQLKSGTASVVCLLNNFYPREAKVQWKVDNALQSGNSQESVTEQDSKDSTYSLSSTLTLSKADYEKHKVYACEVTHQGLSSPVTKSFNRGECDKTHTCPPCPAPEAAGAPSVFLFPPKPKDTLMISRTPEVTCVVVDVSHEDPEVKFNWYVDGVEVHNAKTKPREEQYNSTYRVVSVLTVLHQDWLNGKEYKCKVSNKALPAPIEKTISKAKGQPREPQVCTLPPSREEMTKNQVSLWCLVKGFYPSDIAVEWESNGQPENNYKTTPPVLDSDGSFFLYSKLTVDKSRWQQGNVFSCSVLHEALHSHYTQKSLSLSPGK
mFd: QVQLVQSGAEVKKPGASVKVSCKASGYDYTYYGISWVRQAPGQGLEWMGWISTYNTGTHYAPSLQGRVTMTTDTSTSTAYMELRSLRSDDTAVYYCARESYYGSGAFRGGMDVWGQGTTVTVSSASTKGPSVFPLAPSSKSTSGGTAALGCLVKDYFPEPVTVSWNSGALTSGVHTFPAVLQSSGLYSLSSVVTVPSSSLGTQTYICNVNHKPSNTKVDKKVEPKSC
notes: Same format as p40TL1A-0033 with knob and hole swapped
A word on the Kd: it is a measure of binding affinity in units of concentration. Broadly, the koff is a measure of how fast the partners let go of each other. What is called kon is the rate constant with which the complex forms. Take B1: the “NF-κB assay IC50 (TF-1 reporter cells, 384-well)” value (“NF-κB assay IC50” for short) in [1] is 270 pM. In [2], this molecule yielded a Kd of 194 pM, a koff of 0.00055 s⁻¹ and a kon of 2.83e+06 M⁻¹ s⁻¹. In [3], the Kd is 627 pM, the koff amounted to 8.22e-05 s⁻¹ and the kon stood at 131000 M⁻¹ s⁻¹.

B2: p40TL1A-0041 KiH mFd bispecific antibody (bispecific antibody)
heavy: QVQLVQSGAEVKKPGASVKVSCKASGYDYTYYGISWVRQAPGQGLEWMGWISTYNTGTHYAPSLQGRVTMTTDTSTSTAYMELRSLRSDDTAVYYCARESYYGSGAFRGGMDVWGQGTTVTVSSASTKGPSVFPLAPSSKSTSGGTAALGCLVKDYFPEPVTVSWNSGALTSGVHTFPAVLQSSGLYSLSSVVTVPSSSLGTQTYICNVNHKPSNTKVDKKVEPKSCDKTHTCPPCPAPEAAGAPSVFLFPPKPKDTLMISRTPEVTCVVVDVSHEDPEVKFNWYVDGVEVHNAKTKPREEQYNSTYRVVSVLTVLHQDWLNGKEYKCKVSNKALPAPIEKTISKAKGQPREPQVCTLPPSREEMTKNQVSLWCLVKGFYPSDIAVEWESNGQPENNYKTTPPVLDSDGSFFLYSKLTVDKSRWQQGNVFSCSVLHEALHSHYTQKSLSLSPGK
light: not shown
LC-Fc: not shown
mFd: EVQLVQSGAEVKKPGESLKISCKGSGYSFTTYWLGWVRQMPGKGLDWIGIMSPVDSDIRYSPSFQGQVTMSVDKSITTAYLQWNSLKASDTAMYYCARRRPGQGYFDFWGQGTLVTVSSASTKGPSVFPLAPSSKSTSGGTAALGCLVKDYFPEPVTVSWNSGALTSGVHTFPAVLQSSGLYSLSSVVTVPSSSLGTQTYICNVNHKPSNTKVDKKVEPKSC
notes: KiH mFd format with the anti-p40 arm as modified Fd
Turning to B2, the “NF-κB assay IC50” value in assay [1] was 320 pM. In assay [2], this molecule registered a Kd of 213 pM, a koff of 0.000485 s⁻¹ and a kon of 2.29e+06 M⁻¹ s⁻¹. Besides, in [3], the Kd was determined as 577 pM, the koff turned out to be 7.56e-05 s⁻¹ and the kon was 131000 M⁻¹ s⁻¹.

B3: p40TL1A-0042 KiH mFd bispecific antibody (bispecific antibody)
heavy: B2 heavy with C356Y, S361C, W373S, L375A, Y414V
light: not shown
LC-Fc: not shown
mFd: B2 mFd
notes: as for B2
For B3, the “NF-κB assay IC50” value in [1] came out at 320 pM. In assay [2], this molecule came in with a Kd of 207 pM, a koff of 0.000488 s⁻¹ and a kon of 2.35e+06 M⁻¹ s⁻¹. Further, in assay [3], the Kd was determined as 419 pM, the koff was determined as 7.42e-05 s⁻¹ and the kon stood at 177000 M⁻¹ s⁻¹.

B4: TL1A-0260 (antibody, human IgG1, kappa, V domains shown)
VH: QVQLVQSGAEVKKPGASVKVSCKASGYDYTYYGISWVRQAPGQGLEWMGWISTYNTGTHYAPSLQGRVTMTTDTSTSTAYMELRSLRSDDTAVYYCARESYYGSGAFRGGMDVWGQGTTVTVSS
VL: DIQMTQSPSSLSASVGDRVTITCRASQSVSSYLAWYQQKPGKAPKLLIYDASNRATGVPSRFSGSGSGTDFTLTISSLQPEDFATYYCQQRSNWPWTFGQGTKVEIKR
notes: human IgG1 effector-function-minimized/kappa; also called bio-TL1A-0260 (biotinylated reporter)
The IC50 is the concentration that gives 50% inhibition. As for B4, in assay [4], the “TF-1 NF-κB reporter cell bioassay IC50” value is 29200 pM; the “TF-1 NF-κB reporter cell bioassay, Bioactivity relative to TL1A-0002” value is 0.8 fold; the “Whole blood IFNγ assay IC50” value stood at 755 pM; the “Whole blood IFNγ assay, Bioactivity relative to TL1A-0002” value came out at 0.9 fold. Besides, in assay [5], the “Bioactivity relative to TL1A-0002” value is 1.3 fold and the IC50 amounted to 6800 pM. Besides, the binding result in assay [6] was “binds”. For the same molecule, the “IC50 (read off the curve)” value in assay [7] was approximately 4000 pM. In addition, in [8], the “IC50 (read off the curve)” value was approximately 7000 pM. For the same molecule, the “IC50 (read off the curve)” value in assay [9] was approximately 4000 pM. Besides, the “IC50 (read off the curve)” value in assay [10] was approximately 4000 pM.

B5: [xTL1A]-0341 (antibody, human IgG1, kappa, V domains shown)
VH: QVQLVQSGAEVKKPGASVKVSCKASGYTFTSYGISWVRQAPGQGLEWMGWISAYNGNTNYAQKLQGRVTMTTDTSTSTAYMELRSLRSDDTAVYYCARESSYGSEAFRAGMDVWGQGTTVTVSS
VL: B4 VL
notes: bivalent disabled antibody, IgG1 effector-function-minimized/kappa
As to B5, the binding result in assay [6] was “no binding (tested: 20 ug/mL)”; in assay [8], “no binding (tested: 300 nM)”.
